Assay results reported in paper PMC4358367, “Structural basis of diverse membrane target recognitions by ankyrins” (eLife, 2014).
Numbering of substitutions follows the chain as printed. Names may count otherwise. One block for each molecule: values may come before it.

Assays:
[1] = biological target: AnkG_repeats (24 ANK repeats of rat 190 kDa ankyrin-G, residues 38–855) (rat) (UniProt O70511); test: ITC; VP-ITC at 25°C; 50 mM Tris pH 7.5, 100 mM NaCl, 1 mM EDTA, 1 mM DTT; binding partner (AS, Nav1.2 ABD proteins, neurofascin ABD; 200–300 µM) in the syringe, ANK repeats (20–30 µM) in the cell; one-site binding model
[2] = biological target: T1, Nav1.2_ABD (ankyrin binding domain of Nav1.2, residues 1035–1129); test: ITC; conditions: chain shown with the change
T1 chain: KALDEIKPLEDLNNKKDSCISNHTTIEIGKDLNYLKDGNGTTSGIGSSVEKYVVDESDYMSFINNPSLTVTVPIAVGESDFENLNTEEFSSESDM

[3] = biological target: T2, AnkR_repeats (24 ANK repeats of ankyrin-R, residues 42–853) (mouse, UniProt Q02357-6 42-853); test: ITC
T2 chain: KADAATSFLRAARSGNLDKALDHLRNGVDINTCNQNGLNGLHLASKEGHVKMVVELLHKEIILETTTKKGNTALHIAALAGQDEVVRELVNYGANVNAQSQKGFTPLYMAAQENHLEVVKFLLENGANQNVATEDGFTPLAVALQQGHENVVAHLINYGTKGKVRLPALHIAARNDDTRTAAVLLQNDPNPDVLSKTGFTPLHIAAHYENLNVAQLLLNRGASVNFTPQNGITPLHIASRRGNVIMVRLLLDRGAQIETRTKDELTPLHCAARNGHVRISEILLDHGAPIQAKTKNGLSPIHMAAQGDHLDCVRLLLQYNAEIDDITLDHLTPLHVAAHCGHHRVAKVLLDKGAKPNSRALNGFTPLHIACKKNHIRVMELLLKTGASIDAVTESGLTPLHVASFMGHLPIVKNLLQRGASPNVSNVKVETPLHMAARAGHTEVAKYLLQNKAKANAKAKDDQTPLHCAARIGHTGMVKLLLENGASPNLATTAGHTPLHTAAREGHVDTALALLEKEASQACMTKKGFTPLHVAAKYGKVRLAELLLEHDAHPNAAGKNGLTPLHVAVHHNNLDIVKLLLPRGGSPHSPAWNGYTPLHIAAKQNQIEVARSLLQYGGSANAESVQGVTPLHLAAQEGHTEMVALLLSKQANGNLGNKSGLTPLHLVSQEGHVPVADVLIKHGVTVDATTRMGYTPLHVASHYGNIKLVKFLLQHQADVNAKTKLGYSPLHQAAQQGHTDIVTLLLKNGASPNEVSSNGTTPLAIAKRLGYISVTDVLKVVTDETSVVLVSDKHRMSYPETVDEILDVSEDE

[4] = biological target: T3, FITC-labeled AnkR_AS peptide; test: fluorescence polarisation; conditions: chain shown with the change
T3 chain: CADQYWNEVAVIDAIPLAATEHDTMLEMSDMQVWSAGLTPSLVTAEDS

[5] = biological target: FITC-labeled AnkR_AS peptide (mouse); test: fluorescence polarisation; FITC-labeled peptide (~1 µM) titrated with AnkB_repeats WT or mutants; 25°C; 50 mM Tris pH 8.0, 100 mM NaCl, 1 mM DTT, 1 mM EDTA; one-site binding model

Molecule: E1112Q-Nav1.2 (ABD with E1112Q) (domain or fragment)
fold weaker binding than wild-type Nav1.2 [1]: 30 fold

Molecule: E1112A-Nav1.2 (ABD with E1112A) (domain or fragment)
fold weaker binding than wild-type Nav1.2 [1]: 30 fold

B1: AnkG_repeats (24 ANK repeats of rat 190 kDa ankyrin-G, residues 38–855), O70511 T94A; N98E (protein)
chain: KSDANASYLRAARAGHLEKALDYIKNGVDVNICNQNGLNALHLASKEGHVEVVSELLQREANVDAAAKKGETALHIASLAGQAEVVKVLVTNGANVNAQSQNGFTPLYMAAQENHLEVVRFLLDNGASQSLATEDGFTPLAVALQQGHDQVVSLLLENDTKGKVRLPALHIAARKDDTKAAALLLQNDTNADIESKMVVNRATESGFTPLHIAAHYGNINVATLLLNRAAAVDFTARNDITPLHVASKRGNANMVKLLLDRGAKIDAKTRDGLTPLHCGARSGHEQVVEMLLDRAAPILSKTKNGLSPLHMATQGDHLNCVQLLLQHNVPVDDVTNDYLTALHVAAHCGHYKVAKVLLDKKANPNAKALNGFTPLHIACKKNRIRVMELLLKHGASIQAVTESGLTPIHVAAFMGHVNIVSQLMHHGASPNTTNVRGETALHMAARSGQAEVVRYLVQDGAQVEAKAKDDQTPLHISARLGKADIVQQLLQQGASPNAATTSGYTPLHLSAREGHEDVAAFLLDHGASLSITTKKGFTPLHVAAKYGKLEVASLLLQKSASPDAAGKSGLTPLHVAAHYDNQKVALLLLDQGASPHAAAKNGYTPLHIAAKKNQMDIATSLLEYGADANAVTRQGIASVHLAAQEGHVDMVSLLLSRNANVNLSNKSGLTPLHLAAQEDRVNVAEVLVNQGAHVDAQTKMGYTPLHVGCHYGNIKIVNFLLQHSAKVNAKTKNGYTPLHQAAQQGHTHIINVLLQNNASPNELTVNGNTALAIARRLGYISVVDTLKVVTEEIMTTTTITEKHKMNVPETMNEVLDMS
Kd [2]: 2.6 µM

B7: AnkB_repeats (24 ANK repeats of human 220 kDa ankyrin-B, residues 28–873), Q01484 L366Q; F399Q; L432Q (protein)
chain: KSDSNASFLRAARAGNLDKVVEYLKGGIDINTCNQNGLNALHLAAKEGHVGLVQELLGRGSSVDSATKKGNTALHIASLAGQAEVVKVLVKEGANINAQSQNGFTPLYMAAQENHIDVVKYLLENGANQSTATEDGFTPLAVALQQGHNQAVAILLENDTKGKVRLPALHIAARKDDTKSAALLLQNDHNADVQSKMMVNRTTESGFTPLHIAAHYGNVNVATLLLNRGAAVDFTARNGITPLHVASKRGNTNMVKLLLDRGGQIDAKTRDGLTPLHCAARSGHDQVVELLLERGAPLLARTKNGLSPLHMAAQGDHVECVKHLLQHKAPVDDVTLDYQTALHVAAHCGHYRVTKLLLDKRANPNARALNGQTPLHIACKKNRIKVMELLVKYGASIQAITESGQTPIHVAAFMGHLNIVLLLLQNGASPDVTNIRGETALHMAARAGQVEVVRCLLRNGALVDARAREEQTPLHIASRLGKTEIVQLLLQHMAHPDAATTNGYTPLHISAREGQVDVASVLLEAGAAHSLATKKGFTPLHVAAKYGSLDVAKLLLQRRAAADSAGKNGLTPLHVAAHYDNQKVALLLLEKGASPHATAKNGYTPLHIAAKKNQMQIASTLLNYGAETNIVTKQGVTPLHLASQEGHTDMVTLLLDKGANIHMSTKSGLTSLHLAAQEDKVNVADILTKHGADQDAHTKLGYTPLIVACHYGNVKMVNFLLKQGANVNAKTKNGYTPLHQAAQQGHTHIINVLLQHGAKPNATTANGNTALAIAKRLGYISVVDTLKVVTEEVTTTTTTITEKHKLNVPETMTEVLDVSDEEGDDTMTGDGGEYLRPEDLKELGDD
Kd [4]: 0.41 µM

B8: AnkB_repeats site 2 mutant 'IL' (Ile267 and Leu300 to Gln) (domain or fragment)
chain: B7 chain with I240Q, L273Q, Q339L, Q372F, Q405L
fold decrease in AnkR AS binding against WT ANK repeats [5]: 20 fold

B9: AnkB_repeats (24 ANK repeats of human 220 kDa ankyrin-B, residues 28–873), Q01484 I267Q; L300Q (protein)
chain: B7 chain with I240Q, L273Q, Q339L, Q372F, Q405L
Kd [4]: 3.1 µM

B10: AnkB_repeats (24 ANK repeats of human 220 kDa ankyrin-B, residues 28–873), Q01484 F131Q; F164Q (protein)
chain: B7 chain with F104Q, F137Q, Q339L, Q372F, Q405L
Kd [4]: 2.7 µM

B11: AnkB_repeats (24 ANK repeats of human 220 kDa ankyrin-B, residues 28–873) (domain or fragment)
chain: B7 chain with Q339L, Q372F, Q405L
Kd [5]: 0.14 µM

B12: AnkB_repeats site 3 mutant 'LFL' (Leu366, Phe399 and Leu432 to Gln) (domain or fragment)
chain: B7 chain
fold decrease in AnkR AS binding against WT ANK repeats [5]: 3 fold

B13: AnkB_repeats site 1 mutant 'FF' (Phe131 and Phe164 to Gln) (domain or fragment)
chain: B7 chain with F104Q, F137Q, Q339L, Q372F, Q405L
fold decrease in AnkR AS binding against WT ANK repeats [5]: 20 fold

Continued, values first:

Kd [1]: 0.21 µM
Molecule: Nfasc_ABD (28-residue fragment of the neurofascin cytoplasmic tail, residues 1187–1214) (domain or fragment)

fold weaker affinity than the entire ABD [1]: 15 fold
Molecule: Nav1.2_ABD-C (27-residue motif of loop 2, residues 1103–1129) (domain or fragment)

Kd [1]: 0.17 µM
Molecule: Nav1.2_ABD (ankyrin binding domain of Nav1.2, residues 1035–1129) (domain or fragment)

Kd [3]: 1 µM
B2: AnkR 1529-1825 (protein)
chain: RQSRNLKPERRHGDREYSLSPSQVNGYSSLQDELLSPASLQYALPSPLCADQYWNEVTVIDAIPLAATEHDTMLEMSDMQVWSAGLTPSLVTAEDSSLECSKAEDSDAIPEWKLEGAHSEDTQGPELGSQDLVEDDTVDSDATNGLADLLGQEEGQRSEKKRQEVSGTEQDTETEVSLVSGQQRVHARITDSPSVRQVLDRSQARTLDWDKQGSTAVHPQEATQSSWQEEVTQGPHSFQRRITTIQGPEPGALQEYEQVLVSTREHVQRGPPETGSPKAGKEPSLWAPESAFSQEVQ

Kd [3]: 2.2 µM
B3: AnkR 1589-1624 (peptide)
chain: DAIPLAATEHDTMLEMSDMQVWSAGLTPSLVTAEDS

Kd [3]: 23 µM
B4: AnkR 1589-1612 (peptide)
chain: DAIPLAATEHDTMLEMSDMQVWSA

Kd [3]: 2 µM
B5: AnkR 1577-1612 (peptide)
chain: CADQYWNEVTVIDAIPLAATEHDTMLEMSDMQVWSA

Kd [3]: > 50 µM
B6: AnkR 1601-1672 (protein)
chain: MLEMSDMQVWSAGLTPSLVTAEDSSLECSKAEDSDAIPEWKLEGAHSEDTQGPELGSQDLVEDDTVDSDATN

Kd [3]: > 50 µM
B14: AnkR 1529-1600 (protein)
chain: RQSRNLKPERRHGDREYSLSPSQVNGYSSLQDELLSPASLQYALPSPLCADQYWNEVTVIDAIPLAATEHDT

Kd [3]: 1.1 µM
B15: AnkR 1529-1672 (protein)
chain: RQSRNLKPERRHGDREYSLSPSQVNGYSSLQDELLSPASLQYALPSPLCADQYWNEVTVIDAIPLAATEHDTMLEMSDMQVWSAGLTPSLVTAEDSSLECSKAEDSDAIPEWKLEGAHSEDTQGPELGSQDLVEDDTVDSDATN
